{"source": "patent US20070185028A1", "about": "(published 2007)", "binders": {"B1": {"name": "EFHRKYRI (peptide)", "peptide": "EFHRKYRI", "notes": "pin-immobilised 8-mer of human αB crystallin"}, "B2": {"name": "FPFHSPSR (peptide)", "peptide": "FPFHSPSR", "notes": "pin-immobilised 8-mer of human αB crystallin; also called peptide 8"}, "B3": {"name": "DQFFGEHL (peptide)", "peptide": "DQFFGEHL", "notes": "pin-immobilised 8-mer of human αB crystallin; also called peptide 13"}, "B4": {"name": "FYLRPPSF (peptide)", "peptide": "FYLRPPSF", "notes": "pin-immobilised 8-mer of human αB crystallin; also called peptide 24"}, "B5": {"name": "GVLTVNGP (peptide)", "peptide": "GVLTVNGP", "modifications": "also: covalently bound to polyethylene pin", "notes": "pin-immobilised 8-mer of human αB crystallin; also called β9"}, "B6": {"name": "RTIPITRE (peptide)", "peptide": "RTIPITRE", "notes": "pin-immobilised 8-mer of human αB crystallin; also called peptide 79"}, "B7": {"name": "FISREFHR (peptide)", "peptide": "FISREFHR", "notes": "pin-immobilised 8-mer of human αB crystallin; also called peptide 57"}, "B8": {"name": "FSVNLDVK (peptide)", "peptide": "FSVNLDVK", "modifications": "also: covalently bound to polyethylene pin", "notes": "pin-immobilised 8-mer of human αB crystallin; also called β3"}, "B9": {"name": "SFLRAPSW (peptide)", "peptide": "SFLRAPSW", "notes": "as for B1"}, "B10": {"name": "LRAPSWFD (peptide)", "peptide": "LRAPSWFD", "notes": "pin-immobilised 8-mer of human αB crystallin; also called peptide 28"}, "B11": {"name": "IAIHHPWI (peptide)", "peptide": "IAIHHPWI", "notes": "pin-immobilised 8-mer of human αB crystallin; also called peptide 2"}, "B12": {"name": "LTITSSLS (peptide)", "peptide": "LTITSSLS", "modifications": "also: covalently bound to polyethylene pin", "notes": "pin-immobilised 8-mer of human αB crystallin; also called β8"}, "B13": {"name": "LTVNGPRK (peptide)", "peptide": "LTVNGPRK", "notes": "pin-immobilised 8-mer of human αB crystallin; also called peptide 72"}, "B14": {"name": "PFFPFHSP (peptide)", "peptide": "PFFPFHSP", "notes": "pin-immobilised 8-mer of human αB crystallin; also called 13 PFFPFHSP20"}, "B15": {"name": "SLSPFYLR (peptide)", "peptide": "SLSPFYLR", "notes": "pin-immobilised 8-mer of human αB crystallin; also called peptide 22"}, "B16": {"name": "HGFISREF (peptide)", "peptide": "HGFISREF", "notes": "pin-immobilised 8-mer of human αB crystallin; also called peptide 56"}, "B17": {"name": "WIRRPFFP (peptide)", "peptide": "WIRRPFFP", "notes": "pin-immobilised 8-mer of human αB crystallin; also called peptide 5"}}, "key": {"[1]": {"biological_target": "β2-microglobulin (UniProt P61769 21-119)", "sequence (P61769 21-119 limits assumed)": "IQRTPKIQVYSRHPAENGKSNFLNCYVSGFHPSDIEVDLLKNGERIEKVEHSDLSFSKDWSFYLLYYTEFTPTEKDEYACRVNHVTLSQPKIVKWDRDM", "assay": "cell-based or functional assay"}, "[2]": {"biological_target": "beta amyloid (UniProt P05067 672-713, limits assumed)", "assay": "cell-based or functional assay"}, "[3]": {"biological_target": "T1, Human γD crystallin (human, UniProt P07320 2-174, limits assumed)", "T1 sequence (looked up)": "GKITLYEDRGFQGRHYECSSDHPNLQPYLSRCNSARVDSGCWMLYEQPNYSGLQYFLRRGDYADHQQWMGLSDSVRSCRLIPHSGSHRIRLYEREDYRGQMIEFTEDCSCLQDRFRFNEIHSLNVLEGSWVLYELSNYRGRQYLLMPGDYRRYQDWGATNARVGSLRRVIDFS", "assay": "cell-based or functional assay"}, "[4]": {"biological_target": "Amyloid-beta (1-42) (UniProt P05067)", "assay": "cell-based or functional assay"}, "[5]": {"biological_target": "T1, Human γD crystallin", "assay": "protein pin array ELISA, A450; listed as peak peptide with unheated and pre-heated target"}, "[6]": {"biological_target": "T2, Porcine Citrate synthase (porcine, UniProt P00889 28-464)", "T2 construct": "also called CS", "T2 sequence (looked up)": "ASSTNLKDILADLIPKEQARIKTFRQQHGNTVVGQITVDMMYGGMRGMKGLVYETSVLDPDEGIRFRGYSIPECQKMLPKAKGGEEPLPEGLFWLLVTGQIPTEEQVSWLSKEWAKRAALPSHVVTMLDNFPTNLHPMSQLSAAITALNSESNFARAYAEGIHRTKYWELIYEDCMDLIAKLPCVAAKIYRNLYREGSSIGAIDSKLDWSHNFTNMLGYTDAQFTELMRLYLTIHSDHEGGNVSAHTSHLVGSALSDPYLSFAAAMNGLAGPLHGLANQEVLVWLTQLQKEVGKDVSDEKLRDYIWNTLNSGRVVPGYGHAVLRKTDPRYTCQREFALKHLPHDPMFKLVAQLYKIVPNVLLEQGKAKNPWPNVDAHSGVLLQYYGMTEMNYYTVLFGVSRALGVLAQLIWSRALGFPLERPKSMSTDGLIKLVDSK", "assay": "protein pin array ELISA, A450; listed as peak peptide with unheated and pre-heated target"}, "[7]": {"biological_target": "Bovine βH crystallin (bovine)", "assay": "cell-based or functional assay"}, "[8]": {"biological_target": "Equine Alcohol dehydrogenase (equine, UniProt P00327 2-375)", "sequence (P00327 2-375 limits assumed)": "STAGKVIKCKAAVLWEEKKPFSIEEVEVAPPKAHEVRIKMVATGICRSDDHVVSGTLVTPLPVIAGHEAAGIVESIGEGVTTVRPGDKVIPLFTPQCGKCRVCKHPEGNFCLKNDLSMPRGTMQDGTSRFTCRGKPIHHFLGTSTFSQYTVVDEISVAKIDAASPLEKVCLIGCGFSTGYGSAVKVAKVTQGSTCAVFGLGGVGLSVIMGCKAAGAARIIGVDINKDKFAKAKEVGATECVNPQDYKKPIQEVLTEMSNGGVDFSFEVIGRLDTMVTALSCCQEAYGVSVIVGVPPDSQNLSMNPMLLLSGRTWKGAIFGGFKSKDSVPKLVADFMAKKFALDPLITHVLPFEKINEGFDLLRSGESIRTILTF", "assay": "cell-based or functional assay"}, "[9]": {"biological_target": "T2, Porcine Citrate synthase", "assay": "protein pin array"}, "[10]": {"biological_target": "transthyretin (UniProt P02766 21-147)", "assay": "cell-based or functional assay"}}, "note": "No end group written: not given here.", "data": [{"binder": "RQDE", "values": [{"measurement": "β2m fibrillation, ThT fluorescence, 1:1 peptide:β2m (29 µM)", "setting": "[1]", "result": "~100", "unit": "% inhibition"}]}, {"binder": "HGKHEERQDE", "values": [{"measurement": "Δfluorescence (Aβ), Thioflavin T, 72 h at 50° C (no chaperone: 1,324,974,048)", "setting": "[2]", "result": "7.96e+08"}, {"measurement": "Δfluorescence (γD crystallin), Thioflavin T, 72 h at 50° C (no chaperone: 888,803,840)", "setting": "[3]", "result": "7.34e+08"}, {"measurement": "pH induced aggregation of amyloid-beta at pH 5.2, light scattering 360 nm (amyloid-beta alone = 100%)", "setting": "[4]", "result": 30, "unit": "% aggregation"}]}, {"binder": "B1", "values": [{"measurement": "binding result", "setting": "[5]", "result": "binds"}]}, {"binder": "B2", "values": [{"measurement": "binding result", "setting": "[6]", "result": "binds"}]}, {"binder": "STSLSPFYLRPPSFLRAP", "values": [{"measurement": "Δfluorescence (Aβ), Thioflavin T, 72 h at 50° C (no chaperone: 1,324,974,048)", "setting": "[2]", "result": "4.78e+08"}, {"measurement": "Δfluorescence (γD crystallin), Thioflavin T, 72 h at 50° C (no chaperone: 888,803,840)", "setting": "[3]", "result": "6.06e+08"}]}, {"binder": "B3", "values": [{"measurement": "binding result", "setting": "[5]", "result": "binds"}]}, {"binder": "LTITSSLSSDGV", "values": [{"measurement": "Δfluorescence (Aβ), Thioflavin T, 72 h at 50° C (no chaperone: 1,324,974,048)", "setting": "[2]", "result": "3.52e+08"}, {"measurement": "Δfluorescence (γD crystallin), Thioflavin T, 72 h at 50° C (no chaperone: 888,803,840)", "setting": "[3]", "result": "6.75e+08"}]}, {"binder": "LTITSSLSDGV", "values": [{"measurement": "protection against thermal aggregation at 50° C, light scattering 340 nm, 50:1 peptide:target", "setting": "[7]", "result": "~30", "unit": "% protection"}, {"measurement": "pH induced aggregation of amyloid-beta at pH 5.2, light scattering 360 nm (amyloid-beta alone = 100%)", "setting": "[4]", "result": 15, "unit": "% aggregation"}, {"measurement": "protection against thermal aggregation at 50° C, light scattering 340 nm, 50:1 peptide:target", "setting": "[8]", "result": "~30", "unit": "% protection"}]}, {"binder": "ERTIPITRE", "values": [{"measurement": "Δfluorescence (Aβ), Thioflavin T, 72 h at 50° C (no chaperone: 1,324,974,048)", "setting": "[2]", "result": "5.77e+08"}, {"measurement": "Δfluorescence (γD crystallin), Thioflavin T, 72 h at 50° C (no chaperone: 888,803,840)", "setting": "[3]", "result": "6.11e+08"}]}, {"binder": "B4", "values": [{"measurement": "binding result", "setting": "[5]", "result": "binds"}, {"measurement": "binding result", "setting": "[6]", "result": "binds"}]}, {"binder": "B5", "values": [{"measurement": "binding result", "setting": "[5]", "result": "binds"}, {"measurement": "binding result", "setting": "[9]", "result": "binds"}]}, {"binder": "B6", "values": [{"measurement": "binding result", "setting": "[6]", "result": "binds"}]}, {"binder": "HEER", "values": [{"measurement": "TTR fibrillation, ThT fluorescence, 1:1 peptide:TTR (16 µM)", "setting": "[10]", "result": "~100", "unit": "% inhibition"}]}, {"binder": "B7", "values": [{"measurement": "binding result", "setting": "[6]", "result": "binds"}]}, {"binder": "B8", "values": [{"measurement": "binding result", "setting": "[5]", "result": "binds"}, {"measurement": "binding result", "setting": "[6]", "result": "binds"}]}, {"binder": "B9", "values": [{"measurement": "binding result", "setting": "[5]", "result": "binds"}]}, {"binder": "B10", "values": [{"measurement": "binding result", "setting": "[6]", "result": "binds"}]}, {"binder": "B11", "values": [{"measurement": "binding result", "setting": "[5]", "result": "binds"}]}, {"binder": "B12", "values": [{"measurement": "binding result", "setting": "[5]", "result": "binds"}, {"measurement": "binding result", "setting": "[6]", "result": "binds"}]}, {"binder": "DRFSVNLDVKHFS", "values": [{"measurement": "Δfluorescence (Aβ), Thioflavin T, 72 h at 50° C (no chaperone: 1,324,974,048)", "setting": "[2]", "result": "2.64e+08"}, {"measurement": "Δfluorescence (γD crystallin), Thioflavin T, 72 h at 50° C (no chaperone: 888,803,840)", "setting": "[3]", "result": "6.61e+08"}, {"measurement": "protection against thermal aggregation at 50° C, light scattering 340 nm, 50:1 peptide:target", "setting": "[7]", "result": "~30", "unit": "% protection"}, {"measurement": "pH induced aggregation of amyloid-beta at pH 5.2, light scattering 360 nm (amyloid-beta alone = 100%)", "setting": "[4]", "result": 4, "unit": "% aggregation"}, {"measurement": "protection against thermal aggregation at 50° C, light scattering 340 nm, 50:1 peptide:target", "setting": "[8]", "result": "~30", "unit": "% protection"}]}, {"binder": "B13", "values": [{"measurement": "binding result", "setting": "[6]", "result": "binds"}]}, {"binder": "EERQDE", "values": [{"measurement": "β2m fibrillation, ThT fluorescence, 1:1 peptide:β2m (29 µM)", "setting": "[1]", "result": "~100", "unit": "% inhibition"}, {"measurement": "TTR fibrillation, ThT fluorescence, 1:1 peptide:TTR (16 µM)", "setting": "[10]", "result": "~100", "unit": "% inhibition"}]}, {"binder": "B14", "values": [{"measurement": "binding result", "setting": "[5]", "result": "binds"}]}, {"binder": "B15", "values": [{"measurement": "binding result", "setting": "[5]", "result": "binds"}, {"measurement": "binding result", "setting": "[6]", "result": "binds"}]}, {"binder": "B16", "values": [{"measurement": "binding result", "setting": "[5]", "result": "binds"}]}, {"binder": "EERQ", "values": [{"measurement": "β2m fibrillation, ThT fluorescence, 1:1 peptide:β2m (29 µM)", "setting": "[1]", "result": "~100", "unit": "% inhibition"}]}, {"binder": "HGKHEERQ", "values": [{"measurement": "TTR fibrillation, ThT fluorescence, 1:1 peptide:TTR (16 µM)", "setting": "[10]", "result": "~100", "unit": "% inhibition"}]}, {"binder": "B17", "values": [{"measurement": "binding result", "setting": "[5]", "result": "binds"}, {"measurement": "binding result", "setting": "[6]", "result": "binds"}]}]}
